Measured values reported in article PMC8583167 (Oncoimmunology, 2021).

Columns and labels:
[1] = target: T1, mCS1-His (Mus musculus, strain , UniProt Q8BHK6)
[2] = target: T1, mCS1-His; assay: SPR

T1 sequence (Q8BHK6 23-333): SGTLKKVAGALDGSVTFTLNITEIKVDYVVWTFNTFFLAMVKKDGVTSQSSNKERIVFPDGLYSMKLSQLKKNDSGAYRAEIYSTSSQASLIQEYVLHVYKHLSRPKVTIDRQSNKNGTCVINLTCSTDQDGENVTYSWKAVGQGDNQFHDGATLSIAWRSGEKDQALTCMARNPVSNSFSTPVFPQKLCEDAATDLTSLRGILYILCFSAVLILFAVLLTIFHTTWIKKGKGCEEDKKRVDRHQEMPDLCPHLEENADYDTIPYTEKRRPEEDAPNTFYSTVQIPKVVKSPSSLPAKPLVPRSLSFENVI

| Binder | binding result [1] | Kd [2] |
| --- | --- | --- |
| sdAb10 (VHH) VHH: QVQLQESGGGLVQPGGSLRLSCAASGSIFSIYAMGWYRQAPGKQRELVAGITSGGSTHYADSVKGRFTISRDNAKNSVYLQMNSLKPEDTAVYYCNSDLDPPSGTYYPALWSWGQGTQVTVSS | binds |  |
| sdAb2 (VHH) VHH: QVQLQESGGGLVQPGGSLKLSCAASGSIASIYAMGWYRQAPGKQRELVATISSDGSTNYADSVKGRFTISRNNTDNTVCLQMNSLKPEDTALYTCITEQFLGDHTLRDWGQGTQVTVSS | binds |  |
| sdAb3 (VHH) VHH: QVQLQESGGGLVQPGGSLRLSCAASGSIFSIYAMDWYRQAPGKQRELVARITSDGSTNYADSVKGRFTISRDNAKNAVYLQMNSLKPEDTAVYYCVAEQSLGEHTLRDWGQGTQVTVSS | binds |  |
| sdAb4 (VHH) VHH: QVQLQESGGGFVQPGGSLRLSCAASGSIFSVYAMGWYRQAPGKQRELVAAITRGGSANYADSVKGRFTISRDNAKNAVYLQMNSLKPEDTAVYYCVAEQSLGEHTLRDWGQGTQVTVSS | binds |  |
| anti-mCS1 sdAb1, untagged (VHH) VHH: QVQLQESGGGLVQPGGSLRLSCAASGFTFSSTAMSWARQAPGKGLEWVSSIYSDGSTSYADSMKGRSTISRDNAKNTVYLQMNSLKPEDTAVYYCAIGDTGWGRVGQGTQVTVSS |  | 25 nM |
| sdAb5 (VHH) VHH: QVQLQESGGGLVQPGGSLRLSCAVSRSIFSFYAMGWYRQAPGKERELVARIISGGSTNYADSVKGRFTIARDNAKNTVYLQMNSLKPEDTAVYYCVAEQFLNDFTLRDWGQGTQVTVSS | binds |  |

Continued, values first:

| binding result [1] | Kd [2] | Binder |
| --- | --- | --- |
| binds |  | sdAb6 (VHH) VHH: QVQLQESGGGLVQPGGSLRLSCAASGSIFSILAMGWYRQAPGKQRELVASVTNGGSTNYADSVKGRFTISRDNAKNTVYLQMNSLKPEDTAVYYCNVRPYSDYDSWGHGTQVTVSS |
| binds |  | sdAb7 (VHH) VHH: QVQLQESGGGLVQPGGSLRLSCAASGSIFSILAMGWYRQAPGKQRELVASVTNGGSTNYADSVKGRFTISRDNAKNTVYLQMNSLKPEDTAVYYCNVRPYSDYDSWGQGTQVTVSS |
| binds |  | sdAb8 (VHH) VHH: QVQLQESGGGLVQPGGSLRLSCAASGSIFSILAMGWYRQAPGKQRELVASVTNGGSTNYADFVKGRFTISRDNVKNTVYLQMNSLKPEDTAVYYCNVRPYSDYDYWGQGTQVTVSS |
| binds |  | sdAb9 (VHH) VHH: QVQLQESGGGLVQPGGSLRLSCAASGSIFSILSMGWYRQAPGKQRELVASITNGGSTNYADSVKGRFTIFRDNAKNTVDLQMNSLKPEDTAVYYCNARPPRADLWGQGTQVTVSS |
